Reference: paper PMC3919598

Molecular target: MUS81-EME1 complex (human) (UniProt Q96NY9)
Chain of UniProt Q96NY9 (Q96NY9 whole entry, chain 1 of 2): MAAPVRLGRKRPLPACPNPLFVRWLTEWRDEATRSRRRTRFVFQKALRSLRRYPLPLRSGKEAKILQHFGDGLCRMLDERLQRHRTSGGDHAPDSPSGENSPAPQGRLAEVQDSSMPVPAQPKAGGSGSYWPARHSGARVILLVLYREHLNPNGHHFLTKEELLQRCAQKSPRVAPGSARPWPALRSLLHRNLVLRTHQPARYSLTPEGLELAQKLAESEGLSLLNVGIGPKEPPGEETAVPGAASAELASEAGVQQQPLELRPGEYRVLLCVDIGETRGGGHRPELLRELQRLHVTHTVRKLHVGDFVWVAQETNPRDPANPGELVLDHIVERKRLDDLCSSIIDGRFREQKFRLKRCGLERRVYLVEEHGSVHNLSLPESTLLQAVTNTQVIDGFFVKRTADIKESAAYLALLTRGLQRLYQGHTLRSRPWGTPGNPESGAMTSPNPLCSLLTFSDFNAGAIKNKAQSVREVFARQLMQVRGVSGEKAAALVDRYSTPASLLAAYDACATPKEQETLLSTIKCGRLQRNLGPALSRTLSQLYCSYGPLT
Chain of UniProt Q96NY9 (Q96AY2 whole entry, chain 2 of 2, further chain): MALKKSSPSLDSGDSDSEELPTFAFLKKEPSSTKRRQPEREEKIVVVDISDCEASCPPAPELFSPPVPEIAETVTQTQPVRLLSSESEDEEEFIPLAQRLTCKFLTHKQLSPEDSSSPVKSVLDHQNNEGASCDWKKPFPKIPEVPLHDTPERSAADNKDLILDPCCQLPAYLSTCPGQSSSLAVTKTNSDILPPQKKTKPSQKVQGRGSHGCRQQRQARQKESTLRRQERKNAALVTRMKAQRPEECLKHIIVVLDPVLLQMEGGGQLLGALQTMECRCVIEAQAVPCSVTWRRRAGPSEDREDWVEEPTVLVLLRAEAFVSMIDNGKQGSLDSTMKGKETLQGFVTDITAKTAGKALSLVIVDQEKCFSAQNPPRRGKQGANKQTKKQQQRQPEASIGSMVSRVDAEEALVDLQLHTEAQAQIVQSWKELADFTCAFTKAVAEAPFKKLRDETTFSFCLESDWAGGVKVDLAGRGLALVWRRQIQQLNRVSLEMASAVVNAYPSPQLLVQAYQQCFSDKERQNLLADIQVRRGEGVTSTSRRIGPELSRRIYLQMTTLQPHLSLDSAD

B1: Fanconi anemia complementation group A protein (FANCA) (natural protein)
chain: MSDSWVPNSASGQDPGGRRRAWAELLAGRVKREKYNPERAQKLKESAVRLLRSHQDLNALLLEVEGPLCKKLSLSKVIDCDSSEAYANHSSSFIGSALQDQASRLGVPVGILSAGMVASSVGQICTAPAETSHPVLLTVEQRKKLSSLLEFAQYLLAHSMFSRLSFCQELWKIQSSLLLEAVWHLHVQGIVSLQELLESHPDMHAVGSWLFRNLCCLCEQMEASCQHADVARAMLSDFVQMFVLRGFQKNSDLRRTVEPEKMPQVTVDVLQRMLIFALDALAAGVQEESSTHKIVRCWFGVFSGHTLGSVISTDPLKRFFSHTLTQILTHSPVLKASDAVQMQREWSFARTHPLLTSLYRRLFVMLSAEELVGHLQEVLETQEVHWQRVLSFVSALVVCFPEAQQLLEDWVARLMAQAFESCQLDSMVTAFLVVRQAALEGPSAFLSYADWFKASFGSTRGYHGCSKKALVFLFTFLSELVPFESPRYLQVHILHPPLVPGKYRSLLTDYISLAKTRLADLKVSIENMGLYEDLSSAGDITEPHSQALQDVEKAIMVFEHTGNIPVTVMEASIFRRPYYVSHFLPALLTPRVLPKVPDSRVAFIESLKRADKIPPSLYSTYCQACSAAEEKPEDAALGVRAEPNSAEEPLGQLTAALGELRASMTDPSQRDVISAQVAVISERLRAVLGHNEDDSSVEISKIQLSINTPRLEPREHMAVDLLLTSFCQNLMAASSVAPPERQGPWAALFVRTMCGRVLPAVLTRLCQLLRHQGPSLSAPHVLGLAALAVHLGESRSALPEVDVGPPAPGAGLPVPALFDSLLTCRTRDSLFFCLKFCTAAISYSLCKFSSQSRDTLCSCLSPGLIKKFQFLMFRLFSEARQPLSEEDVASLSWRPLHLPSADWQRAALSLWTHRTFREVLKEEDVHLTYQDWLHLELEIQPEADALSDTERQDFHQWAIHEHFLPESSASGGCDGDLQAACTILVNALMDFHQSSRSYDHSENSDLVFGGRTGNEDIISRLQEMVADLELQQDLIVPLGHTPSQEHFLFEIFRRRLQALTSGWSVAASLQRQRELLMYKRILLRLPSSVLCGSSFQAEQPITARCEQFFHLVNSEMRNFCSHGGALTQDITAHFFRGLLNACLRSRDPSLMVDFILAKCQTKCPLILTSALVWWPSLEPVLLCRWRRHCQSPLPRELQKLQEGRQFASDFLSPEAASPAPNPDWLSAAALHFAIQQVREENIRKQLKKLDCEREELLVFLFFFSLMGLLSSHLTSNSTTDLPKAFHVCAAILECLEKRKISWLALFQLTESDLRLGRLLLRVAPDQHTRLLPFAFYSLLSYFHEDAAIREEAFLHVAVDMYLKLVQLFVAGDTSTVSPPAGRSLELKGQGNPVELITKARLFLLQLIPRCPKKSFSHVAELLADRGDCDPEVSAALQSRQQAAPDADLSQEPHLF
**Q.** What does the source list for B1?
**A.** MUS81-EME1-mediated incision of psoralen ICL-damaged 3' ssDNA branch substrate (1.5 nM MUS81-EME1; FANCA 0-20 nM), fold stimulation: 14 fold; MUS81-EME1-mediated incision of undamaged DNA (1.5 nM MUS81-EME1; FANCA 0-20 nM): enhanced up to 5 nM FANCA (Phase I), inhibited from 10 to 20 nM and abrogated at 20 nM FANCA (Phase II): 3 fold
